Results: publication PMC4453016, “Novel Bifunctional Cyclic Chelator for ^89Zr Labeling–Radiolabeling and Targeting Properties of RGD Conjugates” (Molecular Pharmaceutics, 2015)
Where two headings read alike, the source gives them in different places.

Columns and labels:
[1] = test system: αvβ3 integrin positive M21 and αvβ3 integrin negative M21-L tumor xenografts; design: species or system BALB/c nude mice; conditions: mouse, in vivo, iv, 1 h
Protocol: (§1) For the evaluation of biodistribution, four healthy female BALB/c mice (Charles River Laboratories, Sulzfeld, GER) were intravenously injected with [^89Zr]TAFC (∼1.5 MBq/mouse, ∼4 μg of precursor) into the tail vein and sacrificed at 6 h postinjection (p.i.). For the evaluation of tumor uptake of [^89Zr]FSC(succ-RGD)3 female, athymic BALB/c nude mice (Charles River Laboratories) were used. For the induction of tumor xenografts mice were injected subcutaneously with 5 × 10^6 αvβ3 integrin positive M21 cells into the right hind limb and with 5 × 10^6 αvβ3 integrin negative M21-L cells (negative control) into the left hind limb of the same mouse (n = 4). The tumors were allowed to grow until they had reached a volume of 0.3 to 0.6 cm^3. On the day of the experiment [^89Zr]FSC(succ-RGD)3 (∼0.5 MBq/mouse, ∼0.5 μg of peptide) was intravenously injected in the lateral tail vein. Mice were sacrificed by cervical dislocation at 1, 2, and 4 h after injection. Organs (spleen, pancreas, stomach, intestine, kidney, liver, heart, and lung), blood, muscle tissue, bone, and tumors were dissected and weighted. As a comparison, four tumor-bearing mice were intravenously injected in the tail vein with [^68Ga]FSC(succ-RGD)3 (∼0.5 MBq/mouse, ∼0.5 μg of precursor) and sacrificed at 1 h p.i. Activity of the different samples was measured in the gamma counter. Results were expressed as percentage of injected dose per gram tissue (% ID/g).

[2] = pH 7.4
[3] = design: species or system BALB/c nude mice; conditions: mouse, in vivo, iv
Protocol: as §1

[4] = test system: M21 cells (αvβ3 integrin positive); experiment: Internalization assay; type: cell-based, human; conditions: 37 °C, 90 min, total series
Protocol: M21 cells (αvβ3 integrin positive) were diluted with RPMI 1640 (Gibco, Invitrogen Corporation, Paisley, UK) containing 1% glutamine (m/v), 1% bovine serum albumin (BSA) (m/v), CaCl2 (1 mM), MgCl2 (1 mM), and MnCl2 (10 mM) to a concentration of 2.0 × 10^6 cells/mL. Aliquots of 1 mL cell solution were transferred to Eppendorf tubes for incubation at 37 °C for 1 h. After addition of [^89Zr]FSC(RGDfE)3, [^89Zr]FSC(succ-RGD)3, or [^89Zr]FSC(Mal-RGD)3 (approximately 1.5 × 10^6 cpm), the cells were incubated in triplicates with either PBS with 0.5% BSA (150 μL, total series) or with 10 μM c(RGDyV) in PBS/0.5% BSA (150 μL, nonspecific series) at 37 °C for 90 min. After the incubation time the tubes were centrifuged, and incubation was stopped by removal of the medium. Then the cells were washed twice with ice-cold TRIS-buffered saline. Subsequently, the cells were incubated two times in acid wash buffer (20 mM acetate buffer, pH 4.5) at 37 °C for 5 min. Then the tubes were centrifuged, and the supernatant was collected in plastic vials (membrane bound activity). In a last step the cells were lysed by addition of 2 M NaOH, and the radioactivity associated with cells was collected in plastic vials (internalized radioligand fraction). Protein content in the NaOH fraction was determined using a spectrometric method (Bradford assay). The internalized activity was calculated and expressed as percentage of total activity per milligram protein.

[5] = Stability assay in 1000-fold molar excess of EDTA solution (ITLC); type: physicochemical; conditions: competitor EDTA 1000-fold excess, 37 °C, n = 3
Protocol: Determination of the stability of [^89Zr]DFO, [^89Zr]TAFC, and [^89Zr]FSC-RGD conjugates was carried out by incubating the radioligands in PBS, 1000-fold molar excess of EDTA solution with different pH (pH 7 and pH 6; radioligand vs EDTA: 25 μM vs 25 mM) as well as in human serum for 7 days at 37 °C, respectively. At selected time points three aliquots of PBS and EDTA solution were analyzed directly via ITLC, while the three serum aliquots were mixed with 500 μL of CH3CN, vortexed, and centrifuged at 20,000 rcf for 2 min prior to analysis.

[6] = test system: αvβ3 integrin positive M21 and αvβ3 integrin negative M21-L tumor xenografts; type: in vivo, BALB/c nude mice; conditions: ~5 MBq/mouse i.v., monitoring period of 24 h
Protocol: MicroPET/CT imaging experiments were conducted on an Inveon microPET/CT scanner (Siemens Preclinical Solutions, Knoxville, USA). A group of four M21-tumor xenograft bearing BALB/c nude mice were administered with [^89Zr]FSC(succ-RGD)3 (∼5 MBq/mouse, ∼5 μg of peptide) via intravenous tail vein injection. MicroPET images were acquired under general anesthesia (isoflurane/O2) for 20 min. PET data for each mouse were recorded via static scans at 1, 4, and 24 h p.i. The microPET scans were reconstructed with Inveon Acquisition Workplace software (version 1.5; Siemens Preclinical Solutions), using a 3-dimensional fast maximum a posteriori algorithm with the following parameters: matrix, 256 × 256 × 161; pixel size, 0.4 × 0.4 × 0.8 mm; β-value of 1.5 mm resolution with uniform variance.

[7] = uptake in αvβ3 integrin positive M21 tumor

For `C/C1=C/C(=O)N(O)CCC[C@H](NC(=O)CCC(=O)NCCCC[C@@H]2NC(=O)[C@@H](Cc3ccccc3)NC(=O)[C@H](CC(=O)O)NC(=O)CNC(=O)[C@H](CCCNC(=N)N)NC2=O)C(=O)OCC/C(C)=C\C(=O)N(O)CCC[C@H](NC(=O)CCC(=O)NCCCC[C@@H]2NC(=O)[C@@H](Cc3ccccc3)NC(=O)[C@H](CC(=O)O)NC(=O)CNC(=O)[C@H](CCCNC(=N)N)NC2=O)C(=O)OCC/C(C)=C\C(=O)N(O)CCC[C@H](NC(=O)CCC(=O)NCCCC[C@@H]2NC(=O)[C@@H](Cc3ccccc3)NC(=O)[C@H](CC(=O)O)NC(=O)CNC(=O)[C@H](CCCNC(=N)N)NC2=O)C(=O)OCC1` [[^68Ga]FSC(succ-RGD)3] [metal not drawn, reference compound], the blood activity [1] was 0.63 ± 0.26 % ID/g, the “uptake in the spleen” value [1] was 3.27 ± 0.64 % ID/g and the “uptake in αvβ3 integrin negative M21-L tumors” value [1] was 1.10 ± 0.30 % ID/g.

Work on `C/C1=C/C(=O)N(O)CCC[C@H](NC(=O)CCC(=O)NCCCC[C@@H]2NC(=O)[C@@H](Cc3ccccc3)NC(=O)[C@H](CC(=O)O)NC(=O)CNC(=O)[C@H](CCCNC(=N)N)NC2=O)C(=O)OCC/C(C)=C\C(=O)N(O)CCC[C@H](NC(=O)CCC(=O)NCCCC[C@@H]2NC(=O)[C@@H](Cc3ccccc3)NC(=O)[C@H](CC(=O)O)NC(=O)CNC(=O)[C@H](CCCNC(=N)N)NC2=O)C(=O)OCC/C(C)=C\C(=O)N(O)CCC[C@H](NC(=O)CCC(=O)NCCCC[C@@H]2NC(=O)[C@@H](Cc3ccccc3)NC(=O)[C@H](CC(=O)O)NC(=O)CNC(=O)[C@H](CCCNC(=N)N)NC2=O)C(=O)OCC1` [[^89Zr]FSC(succ-RGD)3, metal not drawn] yielded a logD [2] of -2.9, a tissue uptake at 1 h ([3]; activity in kidneys) of 6.42 ± 0.72 %ID/g and a tissue uptake at 2 h ([3]; activity in kidneys) of 5.77 ± 0.2 %ID/g. The tissue uptake at 4 h ([3]; activity in kidneys) was 5.26 ± 0.9 %ID/g, the tissue uptake at 1 h ([3]; activity in the bone) was 0.71 ± 0.05 %ID/g and the tissue uptake at 2 h ([3]; activity in the bone) was 0.79 ± 0.28 %ID/g. It also gave a tissue uptake at 4 h ([3]; activity in the bone) of 0.73 ± 0.27 %ID/g, a tissue uptake at 2 h ([3]; blood activity) of 0.15 %ID/g and a tissue uptake at 4 h ([3]; blood activity) of 0.1 ± 0.01 %ID/g. It also gave a tissue uptake at 1 h ([3]; uptake in the spleen) of 1.78 ± 0.22 %ID/g, a tissue uptake at 4 h ([3]; uptake in αvβ3 integrin negative M21-L tumors) of 0.5 %ID/g and a tissue uptake at 1 h [3, 7] of 2.83 ± 0.6 %ID/g. It also gave a tissue uptake at 2 h [3, 7] of 3.48 ± 0.45 %ID/g and a tissue uptake at 4 h [3, 7] of 2.86 ± 0.3 %ID/g.

With `C/C1=C/C(=O)N(O)CCC[C@H](NC(=O)CC[C@@H]2NC(=O)[C@@H](Cc3ccccc3)NC(=O)[C@H](CC(=O)O)NC(=O)CNC(=O)[C@H](CCCNC(=N)N)NC2=O)C(=O)OCC/C(C)=C\C(=O)N(O)CCC[C@H](NC(=O)CC[C@@H]2NC(=O)[C@@H](Cc3ccccc3)NC(=O)[C@H](CC(=O)O)NC(=O)CNC(=O)[C@H](CCCNC(=N)N)NC2=O)C(=O)OCC/C(C)=C\C(=O)N(O)CCC[C@H](NC(=O)CC[C@@H]2NC(=O)[C@@H](Cc3ccccc3)NC(=O)[C@H](CC(=O)O)NC(=O)CNC(=O)[C@H](CCCNC(=N)N)NC2=O)C(=O)OCC1` [[^89Zr]FSC(RGDfE)3, metal not drawn] the logD [2] was -3 and the “internalized activity, % of total activity per milligram protein” value [4] was 2.3 ± 0.3 % cpm/mg.

With `C/C1=C/C(=O)N(O)CCC[C@H](NC(=O)CCN2C(=O)CC(SCCOCCOCCOCCOCCC(=O)NCCCC[C@@H]3NC(=O)[C@@H](Cc4ccccc4)NC(=O)[C@H](CC(=O)O)NC(=O)CNC(=O)[C@H](CCCNC(=N)N)NC3=O)C2=O)C(=O)OCC/C(C)=C\C(=O)N(O)CCC[C@H](NC(=O)CCN2C(=O)CC(SCCOCCOCCOCCOCCC(=O)NCCCC[C@@H]3NC(=O)[C@@H](Cc4ccccc4)NC(=O)[C@H](CC(=O)O)NC(=O)CNC(=O)[C@H](CCCNC(=N)N)NC3=O)C2=O)C(=O)OCC/C(C)=C\C(=O)N(O)CCC[C@H](NC(=O)CCN2C(=O)CC(SCCOCCOCCOCCOCCC(=O)NCCCC[C@@H]3NC(=O)[C@@H](Cc4ccccc4)NC(=O)[C@H](CC(=O)O)NC(=O)CNC(=O)[C@H](CCCNC(=N)N)NC3=O)C2=O)C(=O)OCC1` (stereo partly shown) [[^89Zr]FSC(Mal-RGD)3, metal not drawn] the logD [2] was -2.9 and the “internalized activity, % of total activity per milligram protein” value [4] was 1.6 ± 0.1 % cpm/mg.

For `C/C1=C/C(=O)N(O)CCC[C@H](NC(=O)CCC(=O)NCCCC[C@@H]2NC(=O)[C@@H](Cc3ccccc3)NC(=O)[C@H](CC(=O)O)NC(=O)CNC(=O)[C@H](CCCNC(=N)N)NC2=O)C(=O)OCC/C(C)=C\C(=O)N(O)CCC[C@H](NC(=O)CCC(=O)NCCCC[C@@H]2NC(=O)[C@@H](Cc3ccccc3)NC(=O)[C@H](CC(=O)O)NC(=O)CNC(=O)[C@H](CCCNC(=N)N)NC2=O)C(=O)OCC/C(C)=C\C(=O)N(O)CCC[C@H](NC(=O)CCC(=O)NCCCC[C@@H]2NC(=O)[C@@H](Cc3ccccc3)NC(=O)[C@H](CC(=O)O)NC(=O)CNC(=O)[C@H](CCCNC(=N)N)NC2=O)C(=O)OCC1` [[^89Zr]FSC(succ-RGD)3] [metal not drawn], the blood activity [1] was 0.16 ± 0.04 % ID/g, the “% intact starting species by incubation time” value (from here on “% intact starting species”) ([5]; pH 7, 1 h) was 98.2 ± 0.1% and the “% intact starting species” value ([5]; pH 7, 4 h) was 98.2 ± 0.1%. For the same molecule, the “% intact starting species” value ([5]; pH 7, 1 d) was 96.5 ± 0.5%, the “% intact starting species” value ([5]; pH 7, 3 d) was 96.0 ± 0.4% and the “% intact starting species” value ([5]; pH 7, 5 d) was 94.5 ± 0.3%. The “% intact starting species” value ([5]; pH 7, 7 d) was 93.9 ± 0.7%, the “internalized activity, % of total activity per milligram protein” value [4] was 2.1 ± 0.3 % cpm/mg and the “uptake in αvβ3 integrin negative M21-L tumors in microPET/CT” value [6] was “no uptake”. For the same molecule, the “visualization of αvβ3 integrin positive M21 tumors in microPET/CT” value [6] was “clearly visualized over the whole monitoring period of 24 h”.
